The test system of data set [1] is HeLa Kyoto. Briefly: thermal stability score vs G1/S (z-score of summed log2 fold changes over temperatures); higher = more thermally stable than in G1/S.
Data set [2] deals with HeLa Kyoto. Briefly: melting temperature (median over replicates), in situ; higher = more thermally stable.
The mark [3] stands for this setting: cell cycle stage: early G1 (4.5 h after nocodazole release).

The values that follow come from the supplement of paper PMC5998384.
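Wherever melting temperature (median over replicates), in situ is given: HeLa Kyoto cells synchronized by double thymidine or nocodazole block, proteins quantified by TMT10plex mass spectrometry, three independent biological replicates.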
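Wherever thermal stability score vs G1/S (z-score of summed log2 fold changes over temperatures) is given: synchronized HeLa Kyoto cells, proteins quantified by TMT10plex mass spectrometry, three biological replicates, mitosis taken 0.5 h after nocodazole release, G1/S directly after double thymidine block.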

Regarding “MAFSQVQCLDDNHVNWRSSESKPEFFYSEEQRLALEALVARGRDAFYEVLKRENIRDFLSELELKRILETIEVYDPGSEDPRGTGPSQGPEDNGVGDGEEASGADGVPIEAEPLPSLEYWPQKSDRSIPQLDLGWPDTIAYRGVTRASVYMQPPIDGQAHIKEVVRKMISQAQKVIAVVMDMFTDVDIFKDLLDAGFKRKVAVYIIVDESNVKYFLHMCERACMHLGHLKNLRVRSSGGTEFFTRSATKFKGALAQKFMFVDGDRAVCGSYSFTWSAARTDRNVISVLSGQVVEMFDRQFQELYLMSHSVSLKGIPMEKEPEPEPIVLPSVVPLVPAGTVAKKLVNPKYALVKAKSVDEIAKISSEKQEAKKPLGLKGPALAEHPGELPELLPPIHPGLLHLERANMFEYLPTWVEPDPEPGSDILGYINIIDPNIWNPQPSQMNRIKIRDTSQASAQHQLWKQSQDSRPRPEPCPPPEPSAPQDGVPAENGLPQGDPEPLPPVPKPRTVPVADVLARDSSDIGWVLELPKEEAPQNGTDHRLPRMAGPGHAPLQRQLSVTQDDPESLGVGLPNGLDGVEEEDDDDYVTLSDQDSHSGSSGRGPGPRRPSVASSVSEEYFEVREHSVPLRRRHSEQVANGPTPPPRRQLSAPHITRGTFVGPQGGSPWAQSRGREEADALKRMQAQRSTDKEAQGQQFHHHRVPASGTRDKDGFPGPPRYRSAADSVQSSTRNAGPAMAGPHHWQAKGGQVPRLLPDPGSPRLAQNARPMTDGRATEEHPSPFGIPYSKLSQSKHLKARTGGSQWASSDSKRRAQAPRDRKDP [FAM83G]”, the thermal stability score turned out to be 1.03 in data set [1] (setting [3]) and 0.873 in data set [1] (cell cycle stage: mitosis). Moreover, the melting temperature in data set [2] (cell cycle stage: G1/S) stood at 51.3 °C.

In the case of “MTQNKLKLCSKANVYTEVPDGGWGWAVAVSFFFVEVFTYGIIKTFGVFFNDLMDSFNESNSRISWIISICVFVLTFSAPLATVLSNRFGHRLVVMLGGLLVSTGMVAASFSQEVSHMYVAIGIISGLGYCFSFLPTVTILSQYFGKRRSIVTAVASTGECFAVFAFAPAIMALKERIGWRYSLLFVGLLQLNIVIFGALLRPIFIRGPASPKIVIQENRKEAQYMLENEKTRTSIDSIDSGVELTTSPKNVPTHTNLELEPKADMQQVLVKTSPRPSEKKAPLLDFSILKEKSFICYALFGLFATLGFFAPSLYIIPLGISLGIDQDRAAFLLSTMAIAEVFGRIGAGFVLNREPIRKIYIELICVILLTVSLFAFTFATEFWGLMSCSIFFGFMVGTIGGTHIPLLAEDDVVGIEKMSSAAGVYIFIQSIAGLAGPPLAGLLVDQSKIYSRAFYSCAAGMALAAVCLALVRPCKMGLCQHHHSGETKVVSHRGKTLQDIPEDFLEMDLAKNEHRVHVQMEPV [SLC16A6]”, the thermal stability score in data set [1] (setting [3]) is -2.68; in data set [1] (cell cycle stage: mitosis) it was -4.18. For the same sequence, the melting temperature was 54.8 °C in data set [2] (cell cycle stage: G1/S) and 54.4 °C in data set [2] (cell cycle stage: mitosis).

Turning to “MAIAQLATEYVFSDFLLKEPTEPKFKGLRLELAVDKMVTCIAVGLPLLLISLAFAQEISIGTQISCFSPSSFSWRQAAFVDSYCWAAVQQKNSLQSESGNLPLWLHKFFPYILLLFAILLYLPPLFWRFAAAPHICSDLKFIMEELDKVYNRAIKAAKSARDLDMRDGACSVPGVTENLGQSLWEVSESHFKYPIVEQYLKTKKNSNNLIIKYISCRLLTLIIILLACIYLGYYFSLSSLSDEFVCSIKSGILRNDSTVPDQFQCKLIAVGIFQLLSVINLVVYVLLAPVVVYTLFVPFRQKTDVLKVYEILPTFDVLHFKSEGYNDLSLYNLFLEENISEVKSYKCLKVLENIKSSGQGIDPMLLLTNLGMIKMDVVDGKTPMSAEMREEQGNQTAELQGMNIDSETKANNGEKNARQRLLDSSC [PANX1]”, the thermal stability score in data set [1] (setting [3]) and in data set [1] (cell cycle stage: mitosis) was -1.3 each time. The melting temperature was 57.4 °C in data set [2] (cell cycle stage: G1/S) and 55.7 °C in data set [2] (cell cycle stage: mitosis).

“MSLLNCENSCGSSQSESDCCVAMASSCSAVTKDDSVGGTASTGNLSSSFMEEIQGYDVEFDPPLESKYECPICLMALREAVQTPCGHRFCKACIIKSIRDAGHKCPVDNEILLENQLFPDNFAKREILSLMVKCPNEGCLHKMELRHLEDHQAHCEFALMDCPQCQRPFQKFHINIHILKDCPRRQVSCDNCAASMAFEDKEIHDQNCPLANVICEYCNTILIREQMPNHYDLDCPTAPIPCTFSTFGCHEKMQRNHLARHLQENTQSHMRMLAQAVHSLSVIPDSGYISEVRNFQETIHQLEGRLVRQDHQIRELTAKMETQSMYVSELKRTIRTLEDKVAEIEAQQCNGIYIWKIGNFGMHLKCQEEEKPVVIHSPGFYTGKPGYKLCMRLHLQLPTAQRCANYISLFVHTMQGEYDSHLPWPFQGTIRLTILDQSEAPVRQNHEEIMDAKPELLAFQRPTIPRNPKGFGYVTFMHLEALRQRTFIKDDTLLVRCEVSTRFDMGSLRREGFQPRSTDAGV [TRAF6]”: the values for the thermal stability score in data set [1] (setting [3]) and in data set [1] (cell cycle stage: mitosis) were 0.286 and -0.125, respectively. Besides, the melting temperature worked out at 51.5 °C in data set [2] (cell cycle stage: G1/S) and 51.3 °C in data set [2] (cell cycle stage: mitosis).
